Experimental data reported in patent US20250296971A1, “GASTRIC INHIBITORY PEPTIDE RECEPTOR LIGANDS” (priority 2021, published 2025).
*1 amine or outer side, *2 acyl side, *3 side chain or, on linkers, in order; H or OH if unused. Bridges are numbered along the chain shown (N, C = ends). Side-chain parts run from the residue outwards. [ ]: non-standard residue; d: D form. The star is where a group is joined. Ttds = 1,13-diamino-4,7,10-trioxatridecan-succinamic acid, NCCCOCCOCCOCCCNC(=O)CCC(=O)*; DOTA(Lu) = O=C1CN2CCN3CCN(CC(=O)*)CCN(CC2)CC(=O)[O][Lu]([O]1)[O]C(=O)C3; NH(1-deoxy-D-glucityl) = OC[C@@H](O)[C@@H](O)[C@H](O)[C@@H](O)CN*; dE(AGLU) = D-glutamic acid bearing 1-amino-1-deoxy-D-glucitol; Pro(trans-4-NH2) = O=C([C@@H]1C[C@@H](N[*:3])CN1[*:1])[*:2]; DOTA = O=C(O)CN1CCN(CC(=O)O)CCN(CC(=O)*)CCN(CC(=O)O)CC1; Trp(5-Br) = N[C@@H](Cc1c[nH]c2ccc(Br)cc12)C(=O)O; Trp(5-Cl) = N[C@@H](Cc1c[nH]c2ccc(Cl)cc12)C(=O)O; Pyridine(2,6-diCH2) = c1cc(C[*:1])nc(C[*:2])c1; APAc = 4-amino-1-carboxymethylpiperidine; mXylylene = c1cc(C[*:1])cc(C[*:2])c1; Glutaryl = O=C(CCCC(=O)[*:2])[*:1]; AGLU = 1-amino-1-deoxy-D-glucitol; dDap(NTASEROL) = not defined here; Hyp = O=C(O)[C@@H]1C[C@@H](O)CN1; Cysteamide = C(CS[*:3])N[*:1]; GLUSEROL = not defined here; NTASEROL = not defined here; hSer = N[C@@H](CCO)C(=O)O; Api = NC1(C(=O)O)CCNCC1; Thp = NC1(C(=O)O)CCOCC1; Aib = CC(C)(N)C(=O)O

B1: Ac-Asp-Trp-5Clw-Hyp-Hse-leu-[Cys(2Lut)-Thp-Leu-Ile-Cys]-NH2 (peptide)
peptide: Ac-DW[Trp(5-Cl)][Hyp][hSer][dL]C[Thp]LIC-NH2
modifications: linker 7-11 via Pyridine(2,6-diCH2)
SMILES: CC[C@H](C)[C@@H]1NC(=O)[C@H](CC(C)C)NC(=O)C2(CCOCC2)NC(=O)[C@@H](NC(=O)[C@@H](CC(C)C)NC(=O)[C@H](CCO)NC(=O)[C@@H]2C[C@@H](O)CN2C(=O)[C@H](Cc2c[nH]c3ccc(Cl)cc23)NC(=O)[C@H](Cc2c[nH]c3ccccc23)NC(=O)[C@H](CC(=O)O)NC(C)=O)CSCc2cccc(n2)CSC[C@@H](C(N)=O)NC1=O
B2: Ac-Hse-Trp-5Brw-Hyp-Glu-leu-[Cys(2Lut)-Thp-Leu-Ile-Cys]-NH2 (peptide)
peptide: Ac-[hSer]W[Trp(5-Br)][Hyp]E[dL]C[Thp]LIC-NH2
modifications: linker 7-11 via Pyridine(2,6-diCH2)
SMILES: CC[C@H](C)[C@@H]1NC(=O)[C@H](CC(C)C)NC(=O)C2(CCOCC2)NC(=O)[C@@H](NC(=O)[C@@H](CC(C)C)NC(=O)[C@H](CCC(=O)O)NC(=O)[C@@H]2C[C@@H](O)CN2C(=O)[C@H](Cc2c[nH]c3ccc(Br)cc23)NC(=O)[C@H](Cc2c[nH]c3ccccc23)NC(=O)[C@H](CCO)NC(C)=O)CSCc2cccc(n2)CSC[C@@H](C(N)=O)NC1=O
B3: AGLU-Glutar-Asp-Trp-5Clw-Hyp-Glu-leu-[Cys(2Lut)-Apc(DOTA)-Leu-Ile-AET] (peptide)
peptide: {AGLU-Glutaryl}-DW[Trp(5-Cl)][Hyp]E[dL]C[Api](DOTA)LI[Cysteamide]
modifications: thioether (positions not given here) via Pyridine(2,6-diCH2); not fully specified (bridges); printed as AGLU-Glutar-Asp-Trp-5Clw-Hyp-Glu-leu-[Cys(2Lut)-Apc(DOTA)-Leu-Ile-AET]

These binders were tested against biotinylated extracellular domain of the human GIP receptor (bioGIPR) (human) (UniProt P48546) (assay: SPR single cycle kinetics, bioGIPR captured on chip; category A: pKD >9.0).
Sequence of biotinylated extracellular domain of the human GIP receptor (bioGIPR) (human) (P48546 24-138 limits assumed): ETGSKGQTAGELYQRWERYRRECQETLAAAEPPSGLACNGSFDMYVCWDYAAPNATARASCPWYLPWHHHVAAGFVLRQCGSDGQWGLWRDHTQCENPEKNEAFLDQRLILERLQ

pKD [pkd] | Binder
> 9 | {AGLU-Glutaryl-APAc}-DW[Trp(5-Cl)][Pro(trans-4-NH2)]([Glutaryl-NH(1-deoxy-D-glucityl)])E[dL]C[Api](DOTA)LIC-{APAc-dE(AGLU)-NH2} (linker 7-11 via Pyridine(2,6-diCH2))
> 9 | {AGLU-Glutaryl}-DW[Trp(5-Cl)][Pro(trans-4-NH2)]E[dL]C[Api](DOTA(Lu))LIC-{APAc-dE(AGLU)-NH2} (linker 7-11 via Pyridine(2,6-diCH2)) [AGLU-Glutar-Asp-Trp-5Clw-Tap-Glu-leu-[Cys(2Lut)-Apc(LuDOTA)-Leu-Ile-Cys]-APAc-glu(AGLU)-NH2]
> 9 | {AGLU-Glutaryl}-DW[Trp(5-Cl)][Hyp]E[dL]C[Thp]LIC-{APAc-dE(AGLU)-K(DOTA)-NH2} (linker 7-11 via Pyridine(2,6-diCH2)) [AGLU-Glutar-Asp-Trp-5Clw-Hyp-Glu-leu-[Cys(2Lut)-Thp-Leu-Ile-Cys]-APAc-glu(AGLU)-Lys(DOTA)-NH2]
> 9 | B1
> 9 | {AGLU-Glutaryl}-DW[Trp(5-Cl)][Pro(trans-4-NH2)]E[dL]C[Api](DOTA)LIC-{APAc-dE(AGLU)-NH2} (linker 7-11 via Pyridine(2,6-diCH2)) [AGLU-Glutar-Asp-Trp-5Clw-Tap-Glu-leu-[Cys(2Lut)-Apc(DOTA)-Leu-Ile-Cys]-APAc-glu(AGLU)-NH2]
> 9 | {NTASEROL}-DW[Trp(5-Cl)][Pro(trans-4-NH2)]E[dL]C[Api](DOTA)LIC-{APAc-dDap(NTASEROL)-NH2} (linker 7-11 via Pyridine(2,6-diCH2); reading uncertain) [NTASEROL-Asp-Trp-5Clw-Tap-Glu-leu-[Cys(2Lut)-Apc(DOTA)-Leu-Ile-Cys]-APAc-dap(NTASEROL)-NH2]
> 9 | {DOTA-dE(AGLU)-APAc}-DW[Trp(5-Cl)][Hyp]E[dL]C[Thp]LIC-{APAc-dE(AGLU)-NH2} (linker 7-11 via Pyridine(2,6-diCH2)) [DOTA-glu(AGLU)-APAc-Asp-Trp-5Clw-Hyp-Glu-leu-[Cys(2Lut)-Thp-Leu-Ile-Cys]-APAc-glu(AGLU)-NH2]
> 9 | {NTASEROL}-DW[Trp(5-Cl)][Pro(trans-4-NH2)]E[dL]C[Api](DOTA)LIC-{APAc-GLUSEROL} (linker 7-11 via Pyridine(2,6-diCH2); reading uncertain) [NTASEROL-Asp-Trp-5Clw-Tap-Glu-leu-[Cys(2Lut)-Apc(DOTA)-Leu-Ile-Cys]-APAc-GLUSEROL]
> 9 | {DOTA-Ttds}-DW[Trp(5-Cl)][Pro(trans-4-NH2)]E[dL]C[Aib]LI[Cysteamide] (linker 7-11 via mXylylene) [DOTA-Ttds-Asp-Trp-5Clw-Tap-Glu-leu-[Cys(3MeBn)-Aib-Leu-Ile-AET]]
> 9 | {AGLU-Glutaryl}-DW[Trp(5-Cl)][Hyp]E[dL]C[Api](DOTA(Lu))LIC-{APAc-dE(AGLU)-NH2} (linker 7-11 via Pyridine(2,6-diCH2)) [AGLU-Glutar-Asp-Trp-5Clw-Hyp-Glu-leu-[Cys(2Lut)-Apc(LuDOTA)-Leu-Ile-Cys]-APAc-glu(AGLU)-NH2]
> 9 | B2
> 9 | B3

Each binder was assayed against human Gastric Inhibitory Peptide Receptor (GIPR) (human) (UniProt P48546) (assay: FACS competition vs biotinylated GIP-057 on CHO-K1-hGIPR cells; category A: pIC50 >8.0).
Sequence of human Gastric Inhibitory Peptide Receptor (GIPR) (human) (P48546 22-466 limits assumed): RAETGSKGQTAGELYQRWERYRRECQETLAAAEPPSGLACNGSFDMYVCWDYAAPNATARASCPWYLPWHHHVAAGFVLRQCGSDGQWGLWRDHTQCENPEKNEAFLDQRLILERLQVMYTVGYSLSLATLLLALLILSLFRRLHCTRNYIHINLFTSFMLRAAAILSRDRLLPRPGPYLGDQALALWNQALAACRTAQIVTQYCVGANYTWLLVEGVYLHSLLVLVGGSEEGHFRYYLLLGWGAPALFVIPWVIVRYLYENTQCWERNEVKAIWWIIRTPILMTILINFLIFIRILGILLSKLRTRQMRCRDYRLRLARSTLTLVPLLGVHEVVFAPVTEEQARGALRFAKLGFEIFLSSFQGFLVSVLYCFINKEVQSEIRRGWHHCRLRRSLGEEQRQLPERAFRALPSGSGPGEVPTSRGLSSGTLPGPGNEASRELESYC

pIC50 [pic50] | Binder
> 8 | {NTASEROL}-DW[Trp(5-Cl)][Pro(trans-4-NH2)]E[dL]C[Api](DOTA)LIC-{APAc-dDap(NTASEROL)-NH2} (linker 7-11 via Pyridine(2,6-diCH2); reading uncertain) [NTASEROL-Asp-Trp-5Clw-Tap-Glu-leu-[Cys(2Lut)-Apc(DOTA)-Leu-Ile-Cys]-APAc-dap(NTASEROL)-NH2]
> 8 | {NTASEROL}-DW[Trp(5-Cl)][Pro(trans-4-NH2)]E[dL]C[Api](DOTA)LIC-{APAc-GLUSEROL} (linker 7-11 via Pyridine(2,6-diCH2); reading uncertain) [NTASEROL-Asp-Trp-5Clw-Tap-Glu-leu-[Cys(2Lut)-Apc(DOTA)-Leu-Ile-Cys]-APAc-GLUSEROL]

These binders were tested against biotinylated extracellular domain of the human GIP receptor (bioGIPR) (human) (UniProt P48546) (assay: SPR single cycle kinetics, bioGIPR captured on chip; category A: t1/2 >15 min).

t1/2 [min] | Binder
> 15 | {AGLU-Glutaryl-APAc}-DW[Trp(5-Cl)][Pro(trans-4-NH2)]([Glutaryl-NH(1-deoxy-D-glucityl)])E[dL]C[Api](DOTA)LIC-{APAc-dE(AGLU)-NH2} (linker 7-11 via Pyridine(2,6-diCH2))
> 15 | {AGLU-Glutaryl}-DW[Trp(5-Cl)][Pro(trans-4-NH2)]E[dL]C[Api](DOTA(Lu))LIC-{APAc-dE(AGLU)-NH2} (linker 7-11 via Pyridine(2,6-diCH2)) [AGLU-Glutar-Asp-Trp-5Clw-Tap-Glu-leu-[Cys(2Lut)-Apc(LuDOTA)-Leu-Ile-Cys]-APAc-glu(AGLU)-NH2]
> 15 | {AGLU-Glutaryl}-DW[Trp(5-Cl)][Hyp]E[dL]C[Thp]LIC-{APAc-dE(AGLU)-K(DOTA)-NH2} (linker 7-11 via Pyridine(2,6-diCH2)) [AGLU-Glutar-Asp-Trp-5Clw-Hyp-Glu-leu-[Cys(2Lut)-Thp-Leu-Ile-Cys]-APAc-glu(AGLU)-Lys(DOTA)-NH2]
> 15 | B1
> 15 | {AGLU-Glutaryl}-DW[Trp(5-Cl)][Pro(trans-4-NH2)]E[dL]C[Api](DOTA)LIC-{APAc-dE(AGLU)-NH2} (linker 7-11 via Pyridine(2,6-diCH2)) [AGLU-Glutar-Asp-Trp-5Clw-Tap-Glu-leu-[Cys(2Lut)-Apc(DOTA)-Leu-Ile-Cys]-APAc-glu(AGLU)-NH2]
> 15 | {NTASEROL}-DW[Trp(5-Cl)][Pro(trans-4-NH2)]E[dL]C[Api](DOTA)LIC-{APAc-dDap(NTASEROL)-NH2} (linker 7-11 via Pyridine(2,6-diCH2); reading uncertain) [NTASEROL-Asp-Trp-5Clw-Tap-Glu-leu-[Cys(2Lut)-Apc(DOTA)-Leu-Ile-Cys]-APAc-dap(NTASEROL)-NH2]
> 15 | {DOTA-dE(AGLU)-APAc}-DW[Trp(5-Cl)][Hyp]E[dL]C[Thp]LIC-{APAc-dE(AGLU)-NH2} (linker 7-11 via Pyridine(2,6-diCH2)) [DOTA-glu(AGLU)-APAc-Asp-Trp-5Clw-Hyp-Glu-leu-[Cys(2Lut)-Thp-Leu-Ile-Cys]-APAc-glu(AGLU)-NH2]
> 15 | {NTASEROL}-DW[Trp(5-Cl)][Pro(trans-4-NH2)]E[dL]C[Api](DOTA)LIC-{APAc-GLUSEROL} (linker 7-11 via Pyridine(2,6-diCH2); reading uncertain) [NTASEROL-Asp-Trp-5Clw-Tap-Glu-leu-[Cys(2Lut)-Apc(DOTA)-Leu-Ile-Cys]-APAc-GLUSEROL]
> 15 | {DOTA-Ttds}-DW[Trp(5-Cl)][Pro(trans-4-NH2)]E[dL]C[Aib]LI[Cysteamide] (linker 7-11 via mXylylene) [DOTA-Ttds-Asp-Trp-5Clw-Tap-Glu-leu-[Cys(3MeBn)-Aib-Leu-Ile-AET]]
> 15 | {AGLU-Glutaryl}-DW[Trp(5-Cl)][Hyp]E[dL]C[Api](DOTA(Lu))LIC-{APAc-dE(AGLU)-NH2} (linker 7-11 via Pyridine(2,6-diCH2)) [AGLU-Glutar-Asp-Trp-5Clw-Hyp-Glu-leu-[Cys(2Lut)-Apc(LuDOTA)-Leu-Ile-Cys]-APAc-glu(AGLU)-NH2]
> 15 | B2
> 15 | B3

The binders below were run against human Gastric Inhibitory Peptide Receptor (human) (UniProt P48546) (assay: FACS competition with GIP-057 on CHO-K1-hGIPR cells; pIC50 category A: >8.0).
Sequence of human Gastric Inhibitory Peptide Receptor (human) (P48546 22-466 limits assumed): as above

pIC50 [pic50] | Binder
> 8 | {AGLU-Glutaryl-APAc}-DW[Trp(5-Cl)][Pro(trans-4-NH2)]([Glutaryl-NH(1-deoxy-D-glucityl)])E[dL]C[Api](DOTA)LIC-{APAc-dE(AGLU)-NH2} (linker 7-11 via Pyridine(2,6-diCH2))
> 8 | {AGLU-Glutaryl}-DW[Trp(5-Cl)][Pro(trans-4-NH2)]E[dL]C[Api](DOTA(Lu))LIC-{APAc-dE(AGLU)-NH2} (linker 7-11 via Pyridine(2,6-diCH2)) [AGLU-Glutar-Asp-Trp-5Clw-Tap-Glu-leu-[Cys(2Lut)-Apc(LuDOTA)-Leu-Ile-Cys]-APAc-glu(AGLU)-NH2]
> 8 | {AGLU-Glutaryl}-DW[Trp(5-Cl)][Hyp]E[dL]C[Thp]LIC-{APAc-dE(AGLU)-K(DOTA)-NH2} (linker 7-11 via Pyridine(2,6-diCH2)) [AGLU-Glutar-Asp-Trp-5Clw-Hyp-Glu-leu-[Cys(2Lut)-Thp-Leu-Ile-Cys]-APAc-glu(AGLU)-Lys(DOTA)-NH2]
> 8 | B1
> 8 | {AGLU-Glutaryl}-DW[Trp(5-Cl)][Pro(trans-4-NH2)]E[dL]C[Api](DOTA)LIC-{APAc-dE(AGLU)-NH2} (linker 7-11 via Pyridine(2,6-diCH2)) [AGLU-Glutar-Asp-Trp-5Clw-Tap-Glu-leu-[Cys(2Lut)-Apc(DOTA)-Leu-Ile-Cys]-APAc-glu(AGLU)-NH2]
> 8 | {DOTA-dE(AGLU)-APAc}-DW[Trp(5-Cl)][Hyp]E[dL]C[Thp]LIC-{APAc-dE(AGLU)-NH2} (linker 7-11 via Pyridine(2,6-diCH2)) [DOTA-glu(AGLU)-APAc-Asp-Trp-5Clw-Hyp-Glu-leu-[Cys(2Lut)-Thp-Leu-Ile-Cys]-APAc-glu(AGLU)-NH2]
> 8 | {DOTA-Ttds}-DW[Trp(5-Cl)][Pro(trans-4-NH2)]E[dL]C[Aib]LI[Cysteamide] (linker 7-11 via mXylylene) [DOTA-Ttds-Asp-Trp-5Clw-Tap-Glu-leu-[Cys(3MeBn)-Aib-Leu-Ile-AET]]
> 8 | {AGLU-Glutaryl}-DW[Trp(5-Cl)][Hyp]E[dL]C[Api](DOTA(Lu))LIC-{APAc-dE(AGLU)-NH2} (linker 7-11 via Pyridine(2,6-diCH2)) [AGLU-Glutar-Asp-Trp-5Clw-Hyp-Glu-leu-[Cys(2Lut)-Apc(LuDOTA)-Leu-Ile-Cys]-APAc-glu(AGLU)-NH2]
> 8 | B2
> 8 | B3
